Where “and” joins values, the source holds several entries; their conditions need not be identical. Equal entries are not always repeated.
B1: Recombinant bovine PTX3 (rtnPTX3) produced in Trichoplusia ni insect cells (natural protein, UniProt Q0VCG9 18-382, looked up)
chain: ENSDDYELMYVNLDNEIDNGLHPTEDPTPCDCSRENSEWDKLFTMLENSQMREGMLLQATDVMLRGELQKLQAELGRLEGSLQKLCGPEAPSETRLARALDDLLQASRDAGRRLARLEDAGALRPQEEAGRALGAVLEELRRTRADLRAVQGWAASRWLPAGCETAILFPMRSKKIFASVHPVTPMKLETFSACIWVKATEVLNKTVLFSYGTKRNPYEIQLYLSYRSIMLVVGGEENRLVADAVISLGTWTHLCSTWDSKKGHMALWVNGDSVATAVDMATGHVVPEGGILQIGQEKNGCCVGGGFDETLAFSGRLTGFNIWEGVLSNEEIREAGGAESCHIRGNVVGWGVTEIQPHGGAQYVY
notes: predicted size of the mature protein 40.2 kDa; The vector pIEx5 supplies the signal peptide of adipokinetic hormone for secretion; A few vector-derived residues at the N-terminus cannot be excluded; Two bands of 43 and 45 kDa, possibly differing in glycosylation at N221; also called Pentraxin-3; source: Trichoplusia ni (High Five) insect cells, transiently transfected with pIEX5-PTX3, secreted …
B2: S100 calcium-binding protein A12 (S100A12), endogenous in bovine milk whey (natural protein, bovine (endogenous in milk whey), UniProt P79105 1-92, looked up)
chain: MTKLEDHLEGIINIFHQYSVRVGHFDTLNKRELKQLITKELPKTLQNTKDQPTIDKIFQDLDADKDGAVSFEEFVVLVSRVLKTAHIDIHKE
notes: 92 amino acids, predicted size 10.7 kDa; also called calgranulin C; source: endogenous, milk whey from udder quarters infected with S. aureus
B3: Pentraxin-3 (PTX3), endogenous in bovine milk whey (natural protein, bovine (endogenous in milk whey), UniProt Q0VCG9 18-382, looked up)
chain: B1 chain
notes: Pentraxin-3 (PTX3), bovine, secreted into milk; predicted Mw of the mature protein 40.2 kDa; one potential N-linked glycosylation site (Asn221); source: endogenous, milk whey from udder quarters infected with S. aureus

How the values were obtained:
[1] = target: the molecule itself; assay: SDS-PAGE and immunoblot; culture supernatant of transfected Trichoplusia ni cells, reducing conditions; results not shown
[2] = target: the molecule itself; assay: SEC; gel permeation chromatography of purified rtnPTX3 in solution; result not shown
human C1q = target: T1, human C1q (human, UniProt P02745 23-245; P02746 28-253; P02747 29-245); assay: ELISA; 500 ng human C1q coated on 96-well plates in PBS pH 7.4 with 1 mM CaCl2 and 1 mM MgCl2; rtnPTX3 (12.5 ng/well, two preparations) added in PBS-Tween 20, 1 h at 37°C; bound rtnPTX3 detected with rabbit antibody raised to rPTX3; conditions: both partners purified
T1 construct: Complement C1q subcomponent subunit A, human; Complement C1q subcomponent subunit B, human; Complement C1q subcomponent subunit C, human; also called C1q component of the human complement system; source: bought: Merck; copies: + +
T1 sequence (P02745 23-245, chain 1 of 3): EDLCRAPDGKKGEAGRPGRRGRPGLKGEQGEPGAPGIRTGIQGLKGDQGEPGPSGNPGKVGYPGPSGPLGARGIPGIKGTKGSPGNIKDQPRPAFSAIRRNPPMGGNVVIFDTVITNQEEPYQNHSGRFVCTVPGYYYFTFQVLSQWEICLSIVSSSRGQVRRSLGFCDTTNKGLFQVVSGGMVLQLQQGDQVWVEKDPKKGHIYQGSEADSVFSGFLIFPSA
T1 sequence (P02746 28-253, chain 2 of 3): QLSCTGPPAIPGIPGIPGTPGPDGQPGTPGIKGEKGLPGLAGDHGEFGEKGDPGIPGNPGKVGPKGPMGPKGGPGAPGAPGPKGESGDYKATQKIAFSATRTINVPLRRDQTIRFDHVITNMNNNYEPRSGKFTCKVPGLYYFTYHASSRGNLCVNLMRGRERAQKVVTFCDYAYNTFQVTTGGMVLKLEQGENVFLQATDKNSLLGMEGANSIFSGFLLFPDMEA
T1 sequence (P02747 29-245, chain 3 of 3): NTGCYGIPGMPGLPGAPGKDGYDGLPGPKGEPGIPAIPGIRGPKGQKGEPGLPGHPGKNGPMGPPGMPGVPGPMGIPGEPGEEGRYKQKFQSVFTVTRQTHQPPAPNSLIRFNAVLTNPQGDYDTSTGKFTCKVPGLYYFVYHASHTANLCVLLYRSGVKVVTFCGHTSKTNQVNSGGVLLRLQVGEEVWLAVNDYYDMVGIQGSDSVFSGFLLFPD

[3] = target: the molecule itself; assay: SDS-PAGE and immunoblot; 25 μl of milk whey from infected udder quarters, run under reducing conditions; detected with immunoaffinity-purified antibodies raised to rS100A12 or rPTX3

Row | Binder | stoichiometry N [1] | stoichiometry N [2] | binding result (human C1q) | stoichiometry N [3]
1 | B1 | 2 | 10 | binds | 
2 | B2 |  |  |  | 2 and 3
3 | B3 |  |  |  | 2

From publication PMC2430192, “Identification of immune genes and proteins involved in the response of bovine mammary tissue to Staphylococcus aureus infection” (BMC Veterinary Research, 2008)
